In one test the test system is SK-MES-1 cells. Briefly: Apoptosis bioassay with crystal violet staining. It counts as cell-based, human. As to conditions: 24 hours, FIGS. 17 and 18. As for the experimental part:
SK-MES-1 human lungcarcinomacells (ATCCHTB 58) were culturedin DMEM:Ham'sF-12 (50:50) media supplemented with 10% FBS, 2 mM L-glutamine, 100 U/ml penicillin, and 100 microgram streptomycin. SK-MES-1 cells were seeded in 96-well Falcon tissue culture treated microplates in a volume of 0.1 ml at a density of 4.0×10^4 cells/well and allowed to attach overnight at 37° C. Apoptosis was induced by adding the various Apo-2L substitutional variants or Apo-2L (consisting of amino acids 91-281 of FIG. 1A; referred to as Apo-2L.2) for 24 hours. Following treatment with the test proteins, the media was removed and the wells were stained for 15 minutes with a 0.5% solution of crystal violet in methanol. The cell number was determined by measuring optical density of the dry plates at 540 nm using a SLT 340 ATC plate reader (Salzburg, Austria).

A further test deals with T1, DR5 (Homo sapiens, UniProt O14763).
T1 construct: Each of the Apo-2L receptor proteins were prepared as immuno adhesin sessentially as described in Ashkenazi et al; made in house
T1 sequence (O14763 56-184 limits assumed): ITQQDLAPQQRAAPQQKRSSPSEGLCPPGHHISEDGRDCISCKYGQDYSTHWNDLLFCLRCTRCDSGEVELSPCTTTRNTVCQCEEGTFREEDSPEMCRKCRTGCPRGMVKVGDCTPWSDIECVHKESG
Nature of the test: BIAcore kinetic binding analysis. As to conditions: IgG-receptor fusion DR5 immobilized; significant = >2-fold; FIG. 19. The procedure:
(§1) For comparison, Apo-2L, consisting of amino acids 91-281 was also tested in the BIAcore for binding to the IgG-receptor fusion molecules. Each of the Apo-2L receptor proteins were prepared as immuno adhesin sessentially as described in Ashkenazi et al., Proc. Natl. Acad. Sci., 88:10535-10539 (1991). The IgG-receptor fusion molecules were immobilized to the CM5 BIAcore chip, research grade (Pharmacia), using NHS-EDC amine coupling chemistry. The Apo-2L alanine-substituted proteins were serially diluted 2-fold from 500 nM to 15.625 nM in the BIAcore running buffer, PBS/0.05% Tween 20, and passed across the sensor chip surface with immobilized receptor. Specific kinetic binding parameters were used to determine the KD value using the BIAcore evaluation software (according to manufacturer's instructions).
(In general: In SPR one partner is held on a chip, and binding of the other changes the refractive index at the surface.)

The next test concerns the target T2, DcR2 (Homo sapiens, UniProt Q9UBN6).
T2 construct: Each of the Apo-2L receptor proteins were prepared as immuno adhesin sessentially as described in Ashkenazi et al; made in house
T2 sequence (Q9UBN6 56-211 limits assumed): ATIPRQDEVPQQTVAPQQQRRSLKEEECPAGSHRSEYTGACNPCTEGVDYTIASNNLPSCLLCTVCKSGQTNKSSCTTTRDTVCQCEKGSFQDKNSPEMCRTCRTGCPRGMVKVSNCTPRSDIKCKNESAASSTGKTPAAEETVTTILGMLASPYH
Nature of the test: BIAcore kinetic binding analysis. As to conditions: IgG-receptor fusion DcR2 immobilized; significant = >2-fold; FIG. 19. The procedure:
as §1

Another test addresses T3, DR4 (Homo sapiens, UniProt O00220).
T3 construct: Each of the Apo-2L receptor proteins were prepared as immuno adhesin sessentially as described in Ashkenazi et al; made in house
Briefly: BIAcore kinetic binding analysis. As to conditions: IgG-receptor fusion DR4 immobilized; significant = >2-fold; FIG. 19. As for the experimental part:
as §1

Another test concerns the target T4, OPG (Homo sapiens, UniProt O00300).
T4 construct: made in house
T4 sequence (O00300 22-401): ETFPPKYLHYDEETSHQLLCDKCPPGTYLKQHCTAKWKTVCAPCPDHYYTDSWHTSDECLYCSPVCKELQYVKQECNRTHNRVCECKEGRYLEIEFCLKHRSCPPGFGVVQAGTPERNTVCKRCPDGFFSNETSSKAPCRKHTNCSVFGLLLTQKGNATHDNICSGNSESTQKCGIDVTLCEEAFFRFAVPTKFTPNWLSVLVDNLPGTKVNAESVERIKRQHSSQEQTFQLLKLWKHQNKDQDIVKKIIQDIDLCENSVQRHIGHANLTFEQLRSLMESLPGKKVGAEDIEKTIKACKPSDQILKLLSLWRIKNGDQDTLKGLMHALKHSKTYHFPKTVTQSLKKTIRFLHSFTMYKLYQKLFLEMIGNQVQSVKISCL
Briefly: BIAcore kinetic binding analysis. As to conditions: OPGR-IgG immobilized; FIG. 19. The procedure:
as §1

Substitutions are numbered along the chain they refer to. Names may count otherwise.

T3 sequence (O00220 24-239 limits assumed): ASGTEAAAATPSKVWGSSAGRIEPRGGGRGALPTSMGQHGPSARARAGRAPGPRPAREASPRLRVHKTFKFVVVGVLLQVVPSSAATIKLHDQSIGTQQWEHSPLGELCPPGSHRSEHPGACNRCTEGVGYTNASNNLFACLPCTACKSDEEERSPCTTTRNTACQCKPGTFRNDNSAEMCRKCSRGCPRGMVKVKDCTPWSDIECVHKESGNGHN

B1: D218A: Apo-2 ligand amino acids 91-281 with aspartic acid at position 218 substituted by alanine (protein)
chain: MAMMEVQGGPSLGQTCVLIVIFTVLLQSLCVAVTYVYFTNELKQMQDKYSKSGIACFLKEDDSYWDPNDEESMNSPCWQVKWQLRQLVRKMILRTSEETISTVQEKQQNISPLVRERGPQRVAAHITGTRGRSNTLSSPNSKNEKALGRKINSWESSRSGHSFLSNLHLRNGELVIHEKGFYYIYSQTYFRFQEEIKENTKNDKQMVQYIYKYTSYPAPILLMKSARNSCWSKDAEYGLYSIYQGGIFELKENDRIFVSVTNEHLIDMDHEASFFGAFLVG
As for B1, the “increased apoptosis-inducing activity when compared to Apo-2L.2” value in the test on SK-MES-1 cells is “approximately 3 fold”. The “change in binding (KD) compared to Apo-2L.2” value with DR5, with DcR2 and in the test with DR4 was “no significant change” each time. Moreover, the “binding to OPGR-IgG compared to Apo-2L.2” value in the test with OPG was “tighter binding”.

B2: D269A: Apo-2 ligand amino acids 91-281 with aspartic acid at position 269 substituted by alanine (protein)
chain: B1 chain with A218D, D269A
In the case of B2, in the test on SK-MES-1 cells, the “increased apoptosis-inducing activity when compared to Apo-2L.2” value is on record as ~7 fold. Further, the “change in binding (KD) compared to Apo-2L.2” value with DR5, in the test with DcR2 and in the test with DR4 was “no significant change” each time. In the test with OPG, the “binding to OPGR-IgG compared to Apo-2L.2” value is recorded as “tighter binding”.
